Measurements taken from the Human Domainome abundance scans (Beltran et al. 2025).
± gives the uncertainty stated by the source.

B1: Ubiquitin-protein ligase residues 30 to 86; numbered along this chain, Q05086 (parent)
chain: KHLIERYYHQLTEGCGNEACTNEFCASCPTFLRMDNNAAAIKALELYKINAKLCDPH

Variants of: B1
Experiment: abundance fitness (aPCA) (normalised: wild type 0, dead -1); higher = more abundant; growth selection in yeast, the domain comes from the species named
Conditions: Homo sapiens

Question: For KHLIERYYHQLWEGCGNEACTNEFCASCPTFLRMDNNAAAIKALELYKINAKLCDPH [T12W], which abundance fitness is on record?
Answer: The abundance fitness was -0.359 ± 0.069.

Question: For KHLIERYYHQLVEGCGNEACTNEFCASCPTFLRMDNNAAAIKALELYKINAKLCDPH [T12V], which abundance fitness is on record?
Answer: The abundance fitness was -0.028 ± 0.058.

Question: Which abundance fitness does the source give for KHLIERYYHQLGEGCGNEACTNEFCASCPTFLRMDNNAAAIKALELYKINAKLCDPH [T12G] here?
Answer: Its abundance fitness is -0.569 ± 0.055.

Question: For KHLIERYYHQLQEGCGNEACTNEFCASCPTFLRMDNNAAAIKALELYKINAKLCDPH [T12Q], which abundance fitness is on record?
Answer: Its abundance fitness is -0.079 ± 0.071.

Question: For KHLIERYYHQLMEGCGNEACTNEFCASCPTFLRMDNNAAAIKALELYKINAKLCDPH [T12M], which abundance fitness is on record?
Answer: Its abundance fitness is 0.03 ± 0.077.

Question: For KHLIERYYHQLSEGCGNEACTNEFCASCPTFLRMDNNAAAIKALELYKINAKLCDPH [T12S], which abundance fitness is on record?
Answer: The abundance fitness was -0.039 ± 0.063.

Question: Which abundance fitness does the source give for KHLIERYYHQLPEGCGNEACTNEFCASCPTFLRMDNNAAAIKALELYKINAKLCDPH [T12P] here?
Answer: The abundance fitness was -0.998 ± 0.11.

Question: Which abundance fitness does the source give for KHLIERYYHQLEEGCGNEACTNEFCASCPTFLRMDNNAAAIKALELYKINAKLCDPH [T12E] here?
Answer: Its abundance fitness is -0.355 ± 0.079.

Question: For KHLIERYYHQLAEGCGNEACTNEFCASCPTFLRMDNNAAAIKALELYKINAKLCDPH [T12A], which abundance fitness is on record?
Answer: The abundance fitness was -0.128 ± 0.058.

Question: With KHLIERYYHQLFEGCGNEACTNEFCASCPTFLRMDNNAAAIKALELYKINAKLCDPH [T12F] as the variant, how does the abundance fitness read?
Answer: The abundance fitness was -0.204 ± 0.12.

Question: Which abundance fitness does the source give for KHLIERYYHQLREGCGNEACTNEFCASCPTFLRMDNNAAAIKALELYKINAKLCDPH [T12R] here?
Answer: Its abundance fitness is -0.073 ± 0.052.

Question: With KHLIERYYHQLIEGCGNEACTNEFCASCPTFLRMDNNAAAIKALELYKINAKLCDPH [T12I] as the variant, how does the abundance fitness read?
Answer: The abundance fitness was -0.062 ± 0.074.

Question: For KHLIERYYHQLLEGCGNEACTNEFCASCPTFLRMDNNAAAIKALELYKINAKLCDPH [T12L], which abundance fitness is on record?
Answer: Its abundance fitness is -0.015 ± 0.056.

Question: With KHLIERYYHQLDEGCGNEACTNEFCASCPTFLRMDNNAAAIKALELYKINAKLCDPH [T12D] as the variant, how does the abundance fitness read?
Answer: The abundance fitness was -0.353 ± 0.1.

Question: For KHLIERYYHQLTMGCGNEACTNEFCASCPTFLRMDNNAAAIKALELYKINAKLCDPH [E13M], which abundance fitness is on record?
Answer: Its abundance fitness is -0.093 ± 0.075.

Question: For KHLIERYYHQLTKGCGNEACTNEFCASCPTFLRMDNNAAAIKALELYKINAKLCDPH [E13K], which abundance fitness is on record?
Answer: Its abundance fitness is 0.041 ± 0.075.

Question: Which abundance fitness does the source give for KHLIERYYHQLTVGCGNEACTNEFCASCPTFLRMDNNAAAIKALELYKINAKLCDPH [E13V] here?
Answer: Its abundance fitness is -0.071 ± 0.053.

Question: Which abundance fitness does the source give for KHLIERYYHQLTSGCGNEACTNEFCASCPTFLRMDNNAAAIKALELYKINAKLCDPH [E13S] here?
Answer: Its abundance fitness is 0.008 ± 0.056.

Question: With KHLIERYYHQLTWGCGNEACTNEFCASCPTFLRMDNNAAAIKALELYKINAKLCDPH [E13W] as the variant, how does the abundance fitness read?
Answer: Its abundance fitness is -0.163 ± 0.073.

Question: Which abundance fitness does the source give for KHLIERYYHQLTYGCGNEACTNEFCASCPTFLRMDNNAAAIKALELYKINAKLCDPH [E13Y] here?
Answer: The abundance fitness was -0.01 ± 0.099.

Question: For KHLIERYYHQLTTGCGNEACTNEFCASCPTFLRMDNNAAAIKALELYKINAKLCDPH [E13T], which abundance fitness is on record?
Answer: Its abundance fitness is -0.009 ± 0.061.

Question: For KHLIERYYHQLTFGCGNEACTNEFCASCPTFLRMDNNAAAIKALELYKINAKLCDPH [E13F], which abundance fitness is on record?
Answer: The abundance fitness was -0.047 ± 0.099.

Question: For KHLIERYYHQLTRGCGNEACTNEFCASCPTFLRMDNNAAAIKALELYKINAKLCDPH [E13R], which abundance fitness is on record?
Answer: Its abundance fitness is -0.02 ± 0.056.

Question: Which abundance fitness does the source give for KHLIERYYHQLTQGCGNEACTNEFCASCPTFLRMDNNAAAIKALELYKINAKLCDPH [E13Q] here?
Answer: The abundance fitness was 0.06 ± 0.082.

Question: Which abundance fitness does the source give for KHLIERYYHQLTIGCGNEACTNEFCASCPTFLRMDNNAAAIKALELYKINAKLCDPH [E13I] here?
Answer: Its abundance fitness is -0.048 ± 0.086.

Question: For KHLIERYYHQLTDGCGNEACTNEFCASCPTFLRMDNNAAAIKALELYKINAKLCDPH [E13D], which abundance fitness is on record?
Answer: Its abundance fitness is 0.055 ± 0.087.

Question: Which abundance fitness does the source give for KHLIERYYHQLTHGCGNEACTNEFCASCPTFLRMDNNAAAIKALELYKINAKLCDPH [E13H] here?
Answer: The abundance fitness was -0.006 ± 0.1.

Question: Which abundance fitness does the source give for KHLIERYYHQLTPGCGNEACTNEFCASCPTFLRMDNNAAAIKALELYKINAKLCDPH [E13P] here?
Answer: The abundance fitness was -1.02 ± 0.1.

Question: Which abundance fitness does the source give for KHLIERYYHQLTAGCGNEACTNEFCASCPTFLRMDNNAAAIKALELYKINAKLCDPH [E13A] here?
Answer: The abundance fitness was 0.029 ± 0.058.

Question: Which abundance fitness does the source give for KHLIERYYHQLTLGCGNEACTNEFCASCPTFLRMDNNAAAIKALELYKINAKLCDPH [E13L] here?
Answer: The abundance fitness was 0.006 ± 0.053.

Question: For KHLIERYYHQSTEGCGNEACTNEFCASCPTFLRMDNNAAAIKALELYKINAKLCDPH [L11S], which abundance fitness is on record?
Answer: The abundance fitness was -0.425 ± 0.057.

Question: Which abundance fitness does the source give for KHLIERYYHQVTEGCGNEACTNEFCASCPTFLRMDNNAAAIKALELYKINAKLCDPH [L11V] here?
Answer: The abundance fitness was -0.036 ± 0.051.

Question: With KHLIERYYHQRTEGCGNEACTNEFCASCPTFLRMDNNAAAIKALELYKINAKLCDPH [L11R] as the variant, how does the abundance fitness read?
Answer: The abundance fitness was -0.872 ± 0.066.

Question: For KHLIERYYHQDTEGCGNEACTNEFCASCPTFLRMDNNAAAIKALELYKINAKLCDPH [L11D], which abundance fitness is on record?
Answer: Its abundance fitness is -0.834 ± 0.1.

Question: For KHLIERYYHQCTEGCGNEACTNEFCASCPTFLRMDNNAAAIKALELYKINAKLCDPH [L11C], which abundance fitness is on record?
Answer: Its abundance fitness is -0.153 ± 0.064.

Question: With KHLIERYYHQNTEGCGNEACTNEFCASCPTFLRMDNNAAAIKALELYKINAKLCDPH [L11N] as the variant, how does the abundance fitness read?
Answer: Its abundance fitness is -0.774 ± 0.13.

Question: With KHLIERYYHQPTEGCGNEACTNEFCASCPTFLRMDNNAAAIKALELYKINAKLCDPH [L11P] as the variant, how does the abundance fitness read?
Answer: Its abundance fitness is -0.865 ± 0.13.

Question: Which abundance fitness does the source give for KHLIERYYHQWTEGCGNEACTNEFCASCPTFLRMDNNAAAIKALELYKINAKLCDPH [L11W] here?
Answer: Its abundance fitness is -0.904 ± 0.08.

Question: Which abundance fitness does the source give for KHLIERYYHQQTEGCGNEACTNEFCASCPTFLRMDNNAAAIKALELYKINAKLCDPH [L11Q] here?
Answer: Its abundance fitness is -0.41 ± 0.086.

Question: Which abundance fitness does the source give for KHLIERYYHQTTEGCGNEACTNEFCASCPTFLRMDNNAAAIKALELYKINAKLCDPH [L11T] here?
Answer: Its abundance fitness is -0.201 ± 0.071.

Question: For KHLIERYYHQGTEGCGNEACTNEFCASCPTFLRMDNNAAAIKALELYKINAKLCDPH [L11G], which abundance fitness is on record?
Answer: The abundance fitness was -0.681 ± 0.053.

Question: For KHLIERYYHQYTEGCGNEACTNEFCASCPTFLRMDNNAAAIKALELYKINAKLCDPH [L11Y], which abundance fitness is on record?
Answer: Its abundance fitness is -0.566 ± 0.11.

Question: For KHLIERYYHQKTEGCGNEACTNEFCASCPTFLRMDNNAAAIKALELYKINAKLCDPH [L11K], which abundance fitness is on record?
Answer: Its abundance fitness is -0.848 ± 0.1.

Question: With KHLIERYYHQMTEGCGNEACTNEFCASCPTFLRMDNNAAAIKALELYKINAKLCDPH [L11M] as the variant, how does the abundance fitness read?
Answer: Its abundance fitness is -0.14 ± 0.081.

Question: For KHLIERYYHQETEGCGNEACTNEFCASCPTFLRMDNNAAAIKALELYKINAKLCDPH [L11E], which abundance fitness is on record?
Answer: Its abundance fitness is -0.843 ± 0.081.

Question: Which abundance fitness does the source give for KHLIERYYHQLTEDCGNEACTNEFCASCPTFLRMDNNAAAIKALELYKINAKLCDPH [G14D] here?
Answer: Its abundance fitness is -0.945 ± 0.11.

Question: With KHLIERYYHQLTEACGNEACTNEFCASCPTFLRMDNNAAAIKALELYKINAKLCDPH [G14A] as the variant, how does the abundance fitness read?
Answer: Its abundance fitness is -0.866 ± 0.072.
